We go through one molecule from article PMC2225448 (Structure(London, England:1993), 2007).

This test deals with Human SOCS4 (amino acids 274-437) (human, UniProt Q8WXH5 274-437). The test can be described thus: crystal structure; ternary complex coexpressed and purified; crystals at 4°C from 10% PEG6000, 2M NaCl; molecular replacement, refined to 2.5 Å. The conditions noted are these: both partners purified.
Human SOCS4 (amino acids 274-437), sequence (Q8WXH5 274-437): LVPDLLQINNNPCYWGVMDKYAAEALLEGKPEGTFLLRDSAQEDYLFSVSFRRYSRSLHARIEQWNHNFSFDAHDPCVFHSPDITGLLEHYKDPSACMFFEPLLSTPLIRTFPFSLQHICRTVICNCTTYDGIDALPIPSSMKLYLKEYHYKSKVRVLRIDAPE

B1: ElonginB (natural protein, human)
chain: MDVFLMIRRHKTTIFTDAKESSTVFELKRIVEGILKRPPDEQRLYKDDQLLDDGKTLGECGFTSQTARPQAPATVGLAFRADDTFEALCIEPFSSPPELPDVMKPQDSGSSANEQAVQ
As to B1, the binding result was “binds”.
